Results reported in patent US20030219445A1.
“And” between values parts separate entries of the source, which are not always exact repeats. Identical values can stand only once.

Tests used:
[1] = target: CD34 antibody 9069 (9C5) coated on M-450 Dynabeads; assay: cell-based or functional assay
[2] = target: biotinylated 9C5 antibody (anti-human CD34 monoclonal antibody, biotinylated with Biotin Hydrazide); assay: cell-based or functional assay

% Yield, released with PR34+ 2.5 mg (beads with 1 µg antibody per 10^8 beads) [1]: 55.9%
% Yield, released with PR34+ 2.5 mg (beads with 5 µg antibody per 10^8 beads) [1]: 68.9%
% Yield, released with PR34+ 2.5 mg (beads with 20 µg antibody per 10^8 beads) [1]: 47.4%
% Yield, released with PR34+ 2.5 mg (beads with 50 µg antibody per 10^8 beads) [1]: 57.5%
release of Camma cells from anti-CD34-coated Dynabeads [1]: > 75%
yield of Camma cells after release with PR34 peptide [1]: > 70%
% SUP-T1 Yield (tube 2, cells released with free PR34+ peptide) [2]: 43%
% SUP-T1 Yield (tube 3, cells released with free PR34+ peptide) [2]: 31%
% T-cells released with 9069N 2.5 mg (CD2-9069N 1 µg, b-9069 1 µg) [2]: 71%
% T-cells released with 9069N 2.5 mg (CD2-9069N 1 µg, b-9069 10 µg) [2]: 87% and 65%
% T-cells released with 9069N 2.5 mg (CD2-9069N 5 µg, b-9069 1 µg) [2]: 61% and 56%
% T-cells released with 9069N 2.5 mg (CD2-9069N 5 µg, b-9069 10 µg) [2]: 50%
% Yield of CD8+ cells (condition 3, released with free PR34+ peptide) [2]: 16%
% Yield, released with PR34+ 2.5 mg (streptavidin coated Dynabead control) [2]: 81.5%
B1: free PR34+ peptide Ac-QQGWFPKD (peptide)
peptide: QQGWFPKD
modifications: N-terminal acetyl (printed Ac-QQGWFPKD)
